# Like-named read-outs stand apart in the source and are kept apart here.
# Key:
# [1] = tested on: pigs fed P-adequate corn-soybean meal basal diet; experiment: Expt 2: metatarsal and femur breaking strength, three-point bending test; assay type: in vivo, pig; conditions: main effect, phytase 2,000 U/kg or Sr 50 mg/kg
# Experimental: Third and 4th metatarsals in both experiments and femur (right leg) in Experiment 2 were prepared by manually removing surrounding skin, muscle and other tissues. Bones were stored in closed plastic bags at 4° C. until strength analysis. Maximal breaking load was measured using an Instron 4500 Machine (Canton, Mass.) at room temperature (23° C.) by subjecting each bone to a three-point bending test^(28). During mechanical tests, force was applied to the center of the bone held by supports 2.0 cm apart for metatarsals and 3.3 cm apart for femur. The crosshead speed was set at 50 mm/min and the sample rate was 10 points/s. Final strength was determined from load-displacement curves indicating the maximum loads. The metatarsal breaking strength was expressed as the mean strength of four bones from both left and right feet of pigs in Experiment 1, and as the mean of the two bones from the right foot of pigs in Experiment 2.
# [2] = tested on: pigs fed P-adequate corn-soybean meal basal diet; experiment: Expt 2: BMC, BMD and bone area by dual energy X-ray absorptiometry; assay type: in vivo, pig
# Experimental: In Experiment 2, bone mineral content (BMC, g) and bone mineral density (BMD, g/cm^2) of 3rd and 4th metatarsals from the left foot and femur from the left leg of each pig were measured. After being thawed to room temperature, entire bones were placed on a rice bag (to remove background effects) and scanned by dual energy X-ray absorptiometry using the GE Lunar Prodigy instrument (GE Lunar, Prodigy, Madison Wis.) in the small animal scan mode. Values of BMC and BMD were predicted by analysis of scans using Prodigy software (version 10.10.038).
# [3] = tested on: pigs fed P-adequate corn-soybean meal basal diet; experiment: Expt 2: femur geometrical and strength properties; assay type: in vivo, pig
# Experimental: A three-point bending test was conducted on the dissected bones to generate load-deformation curves with an Instron Model 5566 (Norwood, Mass.). Mechanical properties of bones were calculated using formula as previously described^(29). Bone cross sections were cut at the mid-point of loading and used to determine area moment of inertia. Cross sections were submersed for 5 min in a 0.4 mol/L sodium hypochlorite solution to remove periosteum and marrow tissue, and then embedded in blue clay (Play-Doh, Hasbro, Pawtucket, R.I.) to prevent depth-of-field distortions and to enhance contrasts. The embedded sections were scanned with a flat-bed scanner (Epson Perfection Model 3490, Long Beach, Calif.) and analyzed using Image J software (30) to measure the x-y coordinates of bone pixels.
# [4] = tested on: weanling pigs fed high P diet; experiment: Examples 4-8: femoral and metacarpal mechanical properties, dimensions, cortical thickness; assay type: in vivo, pig; conditions: 8 wk
# Experimental: As in Examples 1-3, the animal protocol was approved by Cornell Animal Care and Use Committee. An 8-week feeding trial was conducted at Cornell University Swine Research Farm. […] Group 2 were fed a corn-soy basal diet (BD)+0.25% inorganic phosphorus (iP, dicalcium phosphate). Group 2 were fed BD+0.35% iP. […] The BD (Table 7) contained adequate levels of all nutrients except for P^(63), and 0.25% iP is the supplementation level recommended by NRC^(24) to meet the P needs of this age of pigs. […] Pigs were housed in an environmentally-controlled barn (20-25° C.; 12-light: 12-dark cycle), and given free access to feed and water.
# Growth performance of pigs was monitored at two week intervals. Blood samples of all individual pigs (fasted overnight for 8 h) were collected at initial (week 0) and then bi-weekly from the anterior vena cava using 5-mL heparin syringes to assay for concentrations of plasma iP^(73), Ca and Sr^(63). At the end of experiment, 5 pigs (2 male and 3 female) from each group were killed by electrical stunning and exsanguination. Both left and front right legs from each animal were removed from the body.
# After the skin and major muscles were removed, two left legs were subjected to X-ray radiography using a Faxitron machine (Model 43855A; Hewlett Packard, McMinnville, Oreg., USA). Bone radiographs of femur and metacarpals were quantified by the kodac software. The software counted the total number of pixels. Thereafter, the 3rd and 4th metacarpals and femurs were collected to measure length, weight, height, and width after removing the remaining muscle and connective tissue. After the X-ray analysis, the two left legs were used for bone mechanical and mineral testing. Bone mechanical properties were determined by a three-point bending test (ASAE Standard S459 1992) using an Instron 4500 Machine Universal Testing Instrument (Model 1122, Instron, Canton, Mass.) with Instron Series IX Automated Materials Testing System Software (version 4.05). During testing, force was applied to the center of the bone held by supports 2.0 cm apart for metacarpals and 3.3 cm apart for femurs. The crosshead speed was set at 50 mm/min and the sampling rate was at 10 points/sec. The extrinsic parameters (stiffness/slope, maximum load, energy to break, maximum displacement) were derived from the force-displacement curve. Bone breaking strength was calculated with the adjustment of bone weight, and the average strength of the 3rd and 4th metacarpal was used as the metacarpal strength for each pig.
# After the above mechanical tests, midshaft sections of both femur and metacarpus were cut and washed with de-ionized water. The cortical thickness of both bones was measured by slide caliper in the midshaft. Cortical and cancellous bones were separated for total ash and mineral analysis. A 3-cm long and 3-mm thick midshaft of femur and 1-cm long and 1.5-mm thick midshaft of metacarpus were used for cortical ash analysis. For cancellous bone, sponge-like bone from 3-cm below the growth plate of femur and 1.5-cm below the growth plate of metacarpus were collected. For ash analysis, bones were oven-dried at 110° C. for 24 h, and incinerated in a muffle furnace at 550° C. for 96 h. Concentrations of individual elements in the ash were measured using inductively coupled argon plasma spectrophotometer (ICAP 61E Trace Analyzer, Thermo Jarell Ash corporation, Franklin, Mass.)^(63), and were expressed on ash basis.
# [5] = Expt 2, plasma, phytase 2000 U/kg and/or Sr 50 mg/kg
# Experimental: Pigs were penned in an environmentally controlled barn (20-25° C.; 12 h light: 12 h dark cycle), and were allowed free access to feed and water.
# Blood samples of individual pigs were collected at initial (wk 0) and then weekly from the anterior vena cava into heparinized tubes after an overnight fast (8 h). The collected whole blood samples were chilled on ice and centrifuged at 3,000×g (GS-6KR centrifuge, Beckman Instruments Inc.) for 10 min at 4° C. to prepare plasma for assays of inorganic P concentrations and alkaline phosphatase activity.
# The hydrolysis of p-nitrophenol phosphate to p-nitrophenol was used to measure plasma alkaline phosphatase activity^(27). The enzyme unit was defined as 1 μmol of p-nitrophenol released per minute at 30° C.
# [6] = length x width by DXA, diets with phytase
# [7] = main effect, phytase 2,000 U/kg or Sr 50 mg/kg
# [8] = phytase 2000 U/kg and/or Sr 50 mg/kg, n=6
# [9] = 0.35% iP + Sr 50 mg/kg + phytase 3,400 U/kg, P<0.05
molecule,measurement,setting,value
"Phytase: Escherichia coli AppA2 phytase (OptiPhos, JBS United, Inc.), added to diets at feed mixing; AppA2 is SEQ ID NO: 2 (protein, listed as Escherichia coli) MKAILIPFLSLLIPLTPQSAFAQSEPELKLESVVIVSRHGVRAPTKATQLMQDVTPDAWPTWPVKLGWLTPRGGELIAYLGHYQRQRLVADGLLAKKGCPQPGQVAIIADVDERTRKTGEAFAAGLAPDCAITVHTQADTSSPDPLFNPLKTGVCQLDNANVTDAILSRAGGSIADFTGHRQTAFRELERVLNFSQLNLCLNREKQDESCSLTQALPSELKVSADNVSLTGAVSLASMLTEIFLLQQAQGMPEPGWGRITDSHQWNTLLSLHNAQFYLLQRTPEVARSRATPLLDLIMAALTPHPPQKQAYGVTLPTSVLFIAGHDTNLANLGGALELNWTLPGQPDNTPPGGELVFERWRRLSDNSQWIQVSLVFQTLQQMRDKTPLSLNTPPGEVKLTLAGCEERNAQGMCSLAGFTQIVNEARIPACSL",improvement in breaking strength of femur,[1],20%
same,improvement in breaking strength of metatarsals,[1],16%
same,total bone area of femur,[2]; [6],45.8 ± 0.7 cm²
same,total bone area of metatarsal,[2]; [6],9 ± 0.2 cm²
same,increase of total bone area of femur,"[2]; main effect, P<0.05",5%
same,increase of total bone area of metatarsal,"[2]; main effect, P<0.05",7%
same,"elevation of BMD of the two bones (metatarsal, femur)",[2]; [7],9 to 11%
same,"enhancement of BMC in both bones (metatarsal, femur)",[2]; [7],14 to 15%
same,enhancement of yield bending moment of femur,[3]; P<0.05,19%
same,larger cross-sectional area of femur vs diets without phytase,[3]; P=0.06,11%
same,femur Cross-sectional area,[3]; [8],165 mm^2
same,femur Cross-sectional radius,[3]; [8],9.0 mm
same,femur Maximum bending moment,[3]; [8],2263 kg × mm
same,femur Maximum stress,[3]; [8],4.0 kg/mm^2
same,femur Modulus of elasticity,[3]; [8],49 kg/mm^2
same,femur Moment of inertia,[3]; [8],5419 mm^4
same,femur Strain,[3]; [8],0.06
same,femur Yield bending moment,[3]; [8],1507 kg-mm
same,femur Yield stress,[3]; [8],2.7 kg/mm^2
same,greater cortical bone thickness of femur vs 0.35% iP,[4]; [9],32%
same,greater cortical bone thickness of metacarpus vs 0.35% iP,[4]; [9],7%
same,greater energy to break of femur vs 0.35% iP,[4]; [9],26%
same,greater energy to break of metacarpus vs 0.35% iP,[4]; [9],14%
same,greater maximal load of femur vs 0.35% iP,[4]; [9],38%
same,greater maximal load of metacarpus vs 0.35% iP,[4]; [9],20%
same,greater stiffness of femur vs 0.35% iP,[4]; [9],12%
same,greater stiffness of metacarpus vs 0.35% iP,[4]; [9],8%
same,femoral Cross-sectional area,"[4]; 0.35% iP + phytase 3400 U, n=5",199.7 mm^2
same,femoral Height,"[4]; 0.35% iP + phytase 3400 U, n=5",21.8 mm
same,femoral Length,"[4]; 0.35% iP + phytase 3400 U, n=5",143.7 mm
same,femoral Max. Displacement,"[4]; 0.35% iP + phytase 3400 U, n=5",4.9 mm
same,femoral Weight,"[4]; 0.35% iP + phytase 3400 U, n=5",202.2 g
same,femoral Width,"[4]; 0.35% iP + phytase 3400 U, n=5",23.3 mm
same,metacarpal Height,"[4]; 0.35% iP + phytase 3400 U, n=5",14.8 mm
same,metacarpal Length,"[4]; 0.35% iP + phytase 3400 U, n=5",60.5 mm
same,metacarpal Max. Displacement,"[4]; 0.35% iP + phytase 3400 U, n=5",8.9 mm
same,metacarpal Weight,"[4]; 0.35% iP + phytase 3400 U, n=5",19.2 g
same,metacarpal Width,"[4]; 0.35% iP + phytase 3400 U, n=5",15.0 mm
same,Alkaline phosphatase activity,[5]; week 0 (initial),202.1 U/L
same,Alkaline phosphatase activity,[5]; week 5 (final),149.9 U/L

# Reference: patent publication US8192734B2, “Compositions and methods for bone strengthening” (Cornell University, priority 2007, dated 2012)
